In PMC6832383, “Co-Immobilization of Tri-Enzymes for the Conversion of Hydroxymethylfurfural to 2,5-Diformylfuran” (Molecules, 2019):

Tests used:
COc1cccc(CO)c1 = assay: purified protein; conditions: free enzyme, Tris-HCl 50 mM pH 7.1, 37 °C, substrate 3-60 mM
horseradish peroxidase = tested on: T1, horseradish peroxidase; assay: spectrophotometric initial rates at […] nm (purpurogallin), non-linear Michaelis-Menten fit; format: biochemical, Armoracia rusticana; conditions: free enzyme; co-substrate 10 mM H2O2; 100 mM phosphate pH 6.0; 30 °C; pyrogallol 1-8 mM
T1 construct: gene PRXC1A

| Molecule | Km (COc1cccc(CO)c1) [mM] | Vmax (COc1cccc(CO)c1) [µmol/min/mg] | Km (horseradish peroxidase) [mM] |
| --- | --- | --- | --- |
| galactose oxidase (Fusarium graminearum) | 17.6 ± 1.3 | 216 |  |
| Oc1cccc(O)c1O [pyrogallol] |  |  | 2.21 ± 0.04 |
